Measurements reported in doi:10.1101/2023.07.20.548338.

Biological target: GLS1 (endogenous; both KGA and GAC, not told apart) (UniProt D3Z7P3)
Assay: IP of endogenous GLS1, PDZD8 blot
Details: reference: wild-type PDZD8, glucose-starved cells; sites T527

## PDZD8 (from UniProt Q8NEN9) PDZD8-T527A, glucose-starved cells
  binding against the reference: weaker
